{
  "source": "patent EP4721754A1",
  "about": "(Hangzhou Sciwind Biosciences Co., Ltd., dated 2026)",
  "binders": {"B1": {"name": "M30 (peptide)", "peptide": "{C18 diacid-Inp′-AEEA-AEEA}-ASQLSTAVLGRLSDELHRLQDYPRTDVGSGSP-NH2"}},
  "experiment_in_all_cases": "cell-based or functional assay",
  "key": {"[1]": {"target": "T1, amylin receptor (hAMY3R) (human, UniProt P30988 25-474; O60896 24-148)", "T1 sequence (looked up) 1": "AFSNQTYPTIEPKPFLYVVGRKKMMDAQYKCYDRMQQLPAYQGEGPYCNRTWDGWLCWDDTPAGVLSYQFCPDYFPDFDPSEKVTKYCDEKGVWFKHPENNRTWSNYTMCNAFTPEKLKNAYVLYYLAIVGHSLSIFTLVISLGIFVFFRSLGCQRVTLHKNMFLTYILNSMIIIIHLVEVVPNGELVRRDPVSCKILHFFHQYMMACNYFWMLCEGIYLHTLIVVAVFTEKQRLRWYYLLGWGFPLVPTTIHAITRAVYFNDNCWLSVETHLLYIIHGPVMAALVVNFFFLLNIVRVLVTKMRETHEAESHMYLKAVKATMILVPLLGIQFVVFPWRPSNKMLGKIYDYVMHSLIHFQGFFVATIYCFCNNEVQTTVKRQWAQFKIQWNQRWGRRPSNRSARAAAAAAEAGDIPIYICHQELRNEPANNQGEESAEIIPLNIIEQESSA", "T1 sequence (looked up) 2": "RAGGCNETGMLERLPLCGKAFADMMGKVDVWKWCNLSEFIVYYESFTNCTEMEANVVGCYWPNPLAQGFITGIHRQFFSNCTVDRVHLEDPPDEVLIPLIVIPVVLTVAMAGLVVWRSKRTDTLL"}, "[2]": {"target": "T2, calcitonin receptor (hCTR) (human, UniProt P30988 25-474)", "T2 sequence (looked up)": "T1 sequence (looked up) 1"}, "[3]": {"target": "T1, amylin receptor (hAMY3R)", "remark": "listed apart in the source"}, "[4]": {"target": "T1, amylin receptor (hAMY3R)", "remark": "listed apart in the source"}},
  "note": "Primed or numbered codes have the meaning given here. * marks the point of attachment. C18 diacid = O=C(O)CCCCCCCCCCCCCCCCC(=O)*; Inp′ = not defined here; AEEA = NCCOCCOCC(=O)O",
  "data": [
    {"binder": "B1", "values": [
      {"measurement": "Fold change in activity against hAMY3R (benchmark D1)", "setting": "[1]", "result": 36, "unit": "fold"},
      {"measurement": "Fold change in activity against hCTR (benchmark D1)", "setting": "[2]", "result": 0.848, "unit": "fold"},
      {"measurement": "hCTR EC50, CRE-luciferase reporter cells", "setting": "[2]", "result": 0.101, "unit": "nM"},
      {"measurement": "EC50, CRE-luciferase reporter in amylin receptor/CRE-luc CHO cells, 24 h", "setting": "[3]", "result": 1, "unit": "pM"},
      {"measurement": "fold increase of agonistic activity against the amylin receptor, compared with M17", "setting": "[4]", "result": "~70", "unit": "fold"}
    ]}
  ]
}
